# Structures can show the parent of a compound that is named as a salt. Where a SMILES comes first, the peptide text is derived from it. Bridges are numbered along the chain shown (N, C = ends). Where no end group is shown, it is not given here. [ ]: non-standard residue; d: D form. The star is where a group is joined. Tfa = O=C(C(F)(F)F)*
# Biological target: T1, SIRT2 (Homo sapiens, UniProt Q8IXJ6)
# T1 sequence (Q8IXJ6 1-389): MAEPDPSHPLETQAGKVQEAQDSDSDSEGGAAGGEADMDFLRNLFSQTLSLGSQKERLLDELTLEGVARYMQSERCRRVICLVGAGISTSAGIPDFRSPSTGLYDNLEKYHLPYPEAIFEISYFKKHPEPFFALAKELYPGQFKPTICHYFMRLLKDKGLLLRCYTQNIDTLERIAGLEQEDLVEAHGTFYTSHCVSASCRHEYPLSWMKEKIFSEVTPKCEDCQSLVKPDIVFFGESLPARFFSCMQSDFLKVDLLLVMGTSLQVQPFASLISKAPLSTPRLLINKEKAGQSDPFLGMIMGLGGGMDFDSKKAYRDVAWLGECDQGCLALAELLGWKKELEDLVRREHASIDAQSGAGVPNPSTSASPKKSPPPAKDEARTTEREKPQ
# Assay: Evaluation of inhibitory activity of peptides against SIRT2 (fluorescence-using system)
# Format: biochemical
# Conditions: peptide at 1 μM; FIG. 3
# Excerpt: In an evaluation system using fluorescence, the inhibitory activity of the selected peptides against SIRT2 was studied. More specifically, first, peptides to be deacetylated with SIRT2 each having, at both ends thereof, a fluorescent group and a quenching group is deacetylated by mixing with SIRT2. When the resulting peptides are reacted with protease that cleaves only a deacetylated peptide, the quenching group is dissociated from the fluorescent group of only the peptides deacetylated with SIRT2 and fluorescence is emitted. During this deacetylation reaction, presence of an inhibitor against SIRT2 retards the progress of deacetylation of the substrate peptide and fluorescence intensity obtained in the end decreases. This means that the inhibitory ability of the selected peptides can be evaluated by the intensity of fluorescence observed in the end.
row,Compound,"inhibitory ability against SIRT2 (activity of SIRT2, fluorescence intensity)"
1,XHTYHNZRRTNYYC [2L-05],completely suppressed the activity of SIRT2
2,"CC[C@H](C)[C@@H]1NC(=O)[C@H](CCCNC(=N)N)NC(=O)[C@H](Cc2ccc(O)cc2)NC(=O)[C@H](CC(=O)O)NC(=O)[C@H](Cc2c[nH]cn2)NC(=O)[C@@H](Cc2ccc(O)cc2)NC(=O)CSC[C@@H](C(=O)NCC(=O)N[C@@H](CO)C(=O)NCC(=O)N[C@@H](CO)C(=O)NCC(=O)N[C@@H](CO)C(=O)O)NC(=O)[C@@H]2CCCN2C(=O)[C@H](Cc2ccc(O)cc2)NC(=O)[C@H]([C@@H](C)O)NC(=O)[C@H](Cc2c[nH]cn2)NC(=O)[C@H](Cc2ccc(O)cc2)NC(=O)[C@H](CCCNC(=N)N)NC(=O)[C@H](CCCCNC(=O)C(F)(F)F)NC1=O [2D-08, XHDYRIZRYHTYPC] ({CH2CO}-[dY]HDYRIK(Tfa)RYHTYPCGSGSGS-OH; thioether N-14; N-terminus and C-terminus assumed)",completely suppressed the activity of SIRT2
3,"XYNTIIZTYGC ({CH2CO}-[dY]YNTIIK(trifluoroacetyl)TYGCGSGSGS; thioether N-11 (inferred)) [2D-03, thioether-cyclized peptide from NNC library; X = α-N-chloroacetyl-D-tyrosine, Z = ε-N-trifluoroacetyllysine]",completely suppressed the activity of SIRT2
4,"CC[C@H](C)[C@@H]1NC(=O)[C@H](CCCNC(=N)N)NC(=O)[C@H](Cc2ccccc2)NC(=O)[C@H](CC(N)=O)NC(=O)[C@H](CO)NC(=O)[C@H](Cc2ccc(O)cc2)NC(=O)CSC[C@@H](C(=O)NCC(=O)N[C@@H](CO)C(=O)NCC(=O)N[C@@H](CO)C(=O)NCC(=O)N[C@@H](CO)C(=O)O)NC(=O)[C@H](CO)NC(=O)[C@H](CO)NC(=O)[C@H](CC(N)=O)NC(=O)[C@H](CO)NC(=O)[C@H](Cc2ccc(O)cc2)NC(=O)[C@H](CCCNC(=N)N)NC(=O)[C@H](CCCCNC(=O)C(F)(F)F)NC1=O [2L-08, XSNFRIZRYSNSSC] ({CH2CO}-YSNFRIK(Tfa)RYSNSSCGSGSGS-OH; thioether N-14; N-terminus and C-terminus assumed)",completely suppressed the activity of SIRT2

# Reference: patent publication US10195578B2, “Peptide library production method, peptide library, and screening method” (The University of Tokyo, priority 2010, dated 2019)
